Laboratory results reported in article PMC7038936 (Nucleic Acids Research, 2020).
Each block holds one binder with its values, some of them ahead of it.

Experiments:
RPA70AB = RPA70AB (UniProt P27694 181-422); assay: NMR
[1] = target: XPA globular core (XPA98-219);RPA70AB (human;human?, UniProt P23025;P27694 98-219;181-422, |); assay: NMR
[2] = target: RPA70AB (RPA70 181-422), tandem ssDNA-binding domains A and B of RPA70 (human, UniProt P27694 181-422); assay: SEC-MALS
XPA full length M2 = XPA full length M2 (human, UniProt P23025 1-273, E106K;F112A); assay: EMSA
Sequence of XPA full length M2 (P23025 whole entry E106K/F112A): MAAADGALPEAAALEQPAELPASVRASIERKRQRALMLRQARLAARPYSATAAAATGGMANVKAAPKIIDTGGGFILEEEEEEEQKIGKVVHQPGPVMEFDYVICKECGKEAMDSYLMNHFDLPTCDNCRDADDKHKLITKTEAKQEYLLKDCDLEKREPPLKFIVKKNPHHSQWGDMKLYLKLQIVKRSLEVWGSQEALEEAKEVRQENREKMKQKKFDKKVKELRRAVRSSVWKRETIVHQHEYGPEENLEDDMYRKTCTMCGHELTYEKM

Sequence of RPA70AB (P27694 181-422): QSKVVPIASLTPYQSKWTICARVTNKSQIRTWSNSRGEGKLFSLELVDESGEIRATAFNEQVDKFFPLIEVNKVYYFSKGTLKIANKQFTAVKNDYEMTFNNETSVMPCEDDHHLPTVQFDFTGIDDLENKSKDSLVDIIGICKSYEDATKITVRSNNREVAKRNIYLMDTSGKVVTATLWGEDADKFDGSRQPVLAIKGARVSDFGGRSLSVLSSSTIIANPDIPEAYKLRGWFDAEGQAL
Sequence of XPA globular core (XPA98-219);RPA70AB (P27694 181-422, one chain of several): as the sequence (P27694 181-422) above
Sequence of RPA70AB (RPA70 181-422), tandem ssDNA-binding domains A and B of RPA70 (P27694 181-422): as above

Binder: CCCCCCCC (ssDNA) [dC8]
binding result (RPA70AB): binds | binding result [1]: binds

binding result [2]: binds
B1: XPA DNA-binding domain (XPA 98-239), wild type (domain or fragment, human, UniProt P23025 98-239, looked up)
chain: MEFDYVICEECGKEFMDSYLMNHFDLPTCDNCRDADDKHKLITKTEAKQEYLLKDCDLEKREPPLKFIVKKNPHHSQWGDMKLYLKLQIVKRSLEVWGSQEALEEAKEVRQENREKMKQKKFDKKVKELRRAVRSSVWKRET

B2: FAM three-way junction (EMSA) (structured_DNA)
DNA 1: GTTCGTCAGGATTCCAATTCGTGCAGGCAT
DNA 2: ATGCCTGCACGAATTAAGCCATTCGTAATCATGGT
DNA 3: ACCATGATTACGAATGGCTTGGAATCCTGACGAAC
binding result (XPA full length M2): binds
